Experimental data reported in publication PMC3814365 (Nucleic Acids Research, 2013).

Biological target: Untagged Rps28a (S. cerevisiae, UniProt Q3E7X9 1-67)
Assay: SEC-MALS

Sequence of Untagged Rps28a (Q3E7X9 whole entry): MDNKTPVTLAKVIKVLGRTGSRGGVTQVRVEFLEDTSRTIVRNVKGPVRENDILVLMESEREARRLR

stoichiometry N: 1
Binder: DDIDDPKYLPITQSLNITHLIHSATNSPSIN (peptide, UniProt P39998 201-231, looked up) [Edc3(201–231) lacking the His-GST tag]
